A short description of the data set: protein stability index of a GFP-peptide fusion (GPS, HEK-293T) (PSI 1-6); higher = more stable.
Setting [1] is: treatment: DMSO, c terminus: a fixed tail appended.
[2] abbreviates: treatment: MLN4924 1 uM, 8 h, c terminus: a fixed tail appended.

± gives the standard deviation.
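Note: 24-mer peptide tiles fused after GFP, lentivirally expressed, FACS-sorted into six equal bins by GFP/DsRed ratio, decoded by Illumina sequencing, PSI is the read-weighted mean bin number.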

Turning to RLINHSKCGNCQTKLHDIDGVPHL [KMT5A], the protein stability index is, setting by setting: under setting [1], 2.67 ± 0.45; under setting [2], 2.64 ± 0.36.
Take LTSLKDLYKSLKTLSAELVPWLNL [CEP70]: the protein stability index came out at 3.15 ± 0.57 under setting [1] and 3.07 ± 0.42 under setting [2].
Take NKGTRFSEAWEYFHLAPARAGHHP [ZBED2]: the protein stability index turned out to be 2.64 ± 0.16 under setting [1] and 2.96 ± 0.22 under setting [2].
In the case of KPDYEYLRTLFTDLFEKKGYTFDY [CSNK1G1], the protein stability index is, setting by setting: under setting [1], 2.4 ± 0.47; under setting [2], 2.31 ± 0.15.
In the same order, the values of ETIKDLMRQFLRGLDFLHANCIVH [CDK4] are 3.06 ± 0.64 and 3.23 ± 0.56.
For the sequence TCTLLLLYSLAPTMGAVVLSSTLL [MFSD9], the protein stability index was 3.22 ± 0.52 under setting [1] and 3.17 ± 0.28 under setting [2].
AQGRAGAPVPEPPKEEQQQALEQF [EPB41L3]: the protein stability index turned out to be 5.62 ± 0.27 under setting [1] and 5.34 ± 0.3 under setting [2].
As for CPLLLGSVMAIERCIGVTKPIFHS [PTGFR], the protein stability index is, setting by setting: under setting [1], 2.78 ± 0.87; under setting [2], 2.77 ± 0.68.
As for WFGASVLSLLELLELLLDASALTL [SCNN1D], the protein stability index came to 2.54 ± 0.74 under setting [1] and 2.15 ± 0.31 under setting [2].
The corresponding values for LVGKPKIFIIQACRGNQHDVPVIP [CASP6] are 2.56 ± 0.66 and 2.1 ± 0.2.
SYFKCVQKEVLPSMRKIVATWMLE [CCND1]: the protein stability index is 2.91 ± 0.76 under setting [1] and 2.46 ± 0.37 under setting [2].
The corresponding values for DPIVRPLWWIAPGDETAHRIDSQF [MYORG] are 3.23 ± 0.18 and 3.24 ± 0.27.
Take GVGKAIEEELQEIASEPTNKHLFY [MATN2]: the protein stability index runs as follows: under setting [1], 4.75 ± 0.37; under setting [2], 4.46 ± 0.11.
Consider PPNQQMSPSPMSHGHYSMHCLHSA [DLX1], for which the protein stability index is, setting by setting: under setting [1], 3.1 ± 0.31; under setting [2], 3.13 ± 0.15.
SFVYGAVPIGASIYVIGDLDTGTN [GAN] returned a protein stability index under setting [1] of 2.35 ± 0.32 and a protein stability index under setting [2] of 2.29 ± 0.61.
Consider VTEDLRLKDWEHSIALRNISLAKG [SCARA5], for which the protein stability index is 3.5 ± 0.26 under setting [1] and 3.59 ± 0.39 under setting [2].
As for YVKVLHHMVKISGGPRISYPLLHE [MAGEA6], the protein stability index stood at 2.68 ± 0.52 under setting [1] and 2.41 ± 0.5 under setting [2].
In the same order, the values of YSEHFLQEAKLLHWNGRHKPWDFP [GLT8D2] are 2.17 ± 0.21 and 2.41 ± 0.36.
The corresponding values for TAVHGRFTRSQTLIQNGGEIDCVD [ANKRD44] are 4.34 ± 0.14 and 4.48 ± 0.19.
For the sequence NSGLKPKDNEFTSKPWHWPINYQG [POMT2], the protein stability index came out at 2.99 ± 0.18 under setting [1] and 3.24 ± 0.27 under setting [2].
In the case of FKRTIQGSIEYSCPASNECEITKR [ESRRA], the protein stability index came out at 3.88 ± 0.23 under setting [1] and 4.19 ± 0.23 under setting [2].
Take LDSVSPCPSSPKQIHLDVDNDRTT [DLC1]: the protein stability index came out at 5.37 ± 0.13 under setting [1] and 5.55 ± 0.099 under setting [2].
The corresponding values for EEIRGGGLLKYCSLLVHGFKPACM [TENT5D] are 3.11 ± 0.5 and 2.35 ± 0.67.
For the sequence QLERPLPLTSVCYPQDLPRPLRSR [TRAF3IP2], the protein stability index runs as follows: under setting [1], 4.05 ± 0.21; under setting [2], 4.1 ± 0.24.
With HCAAVTPAGCMYIHGGVVNIHENK [KLHDC10], the protein stability index runs as follows: under setting [1], 2.86 ± 0.098; under setting [2], 3.12 ± 0.49.
On to FRHLRLQYIISDLASARIIEQDAV [GMCL1], for which the protein stability index amounted to 2.6 ± 0.73 under setting [1] and 2.44 ± 0.48 under setting [2].
Consider MARPLVPSSQKALLLELKGLQEEP [CDC34], for which the protein stability index under setting [1] was 4.06 ± 0.13 and the protein stability index under setting [2] was 3.98 ± 0.33.
In the case of IPERLSIFCRDTQTVFQKKNLQQT [IQUB], the protein stability index is, setting by setting: under setting [1], 2.87 ± 0.19; under setting [2], 2.98 ± 0.51.
SWEKVTGHNSPLYKRQEESGAAAS [CHIT1]: the protein stability index by setting is: under setting [1], 4.77 ± 0.37; under setting [2], 4.51 ± 0.32.
Regarding ELDEPQHEMVAHRHRQEVLCKEMV [ZSCAN9], the protein stability index is, setting by setting: under setting [1], 4.72 ± 0.24; under setting [2], 4.76 ± 0.26.
For the sequence AGLSLLSPSVMRLVHTQEPGEWLE [ALKBH7], the protein stability index was 2.71 ± 0.38 under setting [1] and 2.79 ± 0.24 under setting [2].
As for AQYDSWPHYPEYFQQPAPEYHQPQ [LOXL2], the protein stability index under setting [1] was 3.62 ± 0.48 and the protein stability index under setting [2] came out at 3.8 ± 0.49.
DMRNSATFKSFEDRVGTIKSKVVG [TPD52L2]: the protein stability index amounted to 3.24 ± 0.16 under setting [1] and 3.61 ± 0.23 under setting [2].
The sequence QSSGKILLCPLCQEEEQAETPMAP [TRIM15] gave a protein stability index under setting [1] of 3.79 ± 0.36 and a protein stability index under setting [2] of 4.28 ± 0.31.
Take LSLNMDNLQDTLEAASFLQILPVL [KLHL13]: the protein stability index runs as follows: under setting [1], 2.66 ± 0.52; under setting [2], 2.72 ± 0.45.
Sequence PSSLGPLLPLQREPLYNWQATKAS [BTBD1] gave a protein stability index under setting [1] of 3.36 ± 0.21 and a protein stability index under setting [2] of 3.5 ± 0.14.
In the same order, the values of AWFFSKTEELNKEVASNTEMIQTS [KRT15] are 3.83 ± 0.18 and 3.84 ± 0.081.
In the case of RKPDPMCVFTYVQSLYNHLRRFE [SMTNL2], the protein stability index stood at 2.74 ± 0.62 (treatment: DMSO, c terminus: native) and 2.72 ± 0.36 (treatment: MLN4924 1 uM, 8 h, c terminus: native).
Regarding VDVQTELYLEEIADRIIEVDMECQ [RSPH3], the protein stability index amounted to 2.75 ± 0.32 under setting [1] and 3.12 ± 0.69 under setting [2].
The corresponding values for EAVLHCHQMGVVHRDLKPENLLLA [CAMK2A] are 2.64 ± 0.27 and 2.58 ± 0.38.
In the case of KNGLSFIETSALDSTNVEAAFQTI [RAB11A], the protein stability index is, setting by setting: under setting [1], 3.31 ± 0.27; under setting [2], 3.56 ± 0.43.
In the same order, the values of SYTTTTTITAPPSRVLQNGGDKLE [SCD] are 4.85 ± 0.23 and 4.81 ± 0.29.
IESKIPLNMEEPPVEEPEPKPDRL [SLC19A2]: the protein stability index runs as follows: under setting [1], 5.36 ± 0.24; under setting [2], 5.57 ± 0.12.
SMLSKNPEDRPSLDDIIRHDFFLQ [PLK2]: the protein stability index is, setting by setting: under setting [1], 3 ± 0.21; under setting [2], 3.19 ± 0.32.
For the sequence YYTFHFLYFKDKIFNVAIPRFHMA [FBXO3], the protein stability index by setting is: under setting [1], 3.06 ± 0.48; under setting [2], 2.81 ± 0.2.
For TRTAEPAESSVPPVTSIGIDNLGL [SLC35F2], the protein stability index stood at 4.48 ± 0.27 under setting [1] and 4.49 ± 0.11 under setting [2].
CGDVHGQFHDLMELFRIGGKSPDT [PPP2CA] came in with a protein stability index under setting [1] of 2.69 ± 0.34 and a protein stability index under setting [2] of 2.84 ± 0.15.
FKAKEAAALGSRGSCSTEVEKETQ [ATP6V1G1]: the protein stability index was 2.94 ± 0.44 under setting [1] and 3.26 ± 0.27 under setting [2].
In the same order, the values of DPVLAKVAGDCLDEKQCKQCANKV [LRRC59] are 4.99 ± 0.42 and 5.07 ± 0.09.
EELAPVGTAHIPPTMHLESPALQV [ZNF449] gave a protein stability index under setting [1] of 4.18 ± 0.27 and a protein stability index under setting [2] of 4.33 ± 0.091.
As to NVSLGPGVVVEDGVCIRRCTVLRD [GMPPB], the protein stability index runs as follows: under setting [1], 3.54 ± 0.27; under setting [2], 3.44 ± 0.29.
The corresponding values for TSFCGQQFILERGEYPRWDAWSGS [CRYBA1] are 2.77 ± 0.68 and 2.65 ± 0.39.
On to STMRRMALRPTAFSGCLNCSKVSE [EMID1], for which the protein stability index reads like this: under setting [1], 2.5 ± 0.21; under setting [2], 3.13 ± 0.62.
For ECYDPRTQQWTAICPLKERRFGAV [GAN], the protein stability index came out at 2.69 ± 0.18 under setting [1] and 2.62 ± 0.3 under setting [2].
As to RENILVSLGAVGEGFHNYHHSFPY [SCD], the protein stability index by setting is: under setting [1], 2.22 ± 0.13; under setting [2], 2.11 ± 0.14.
For QTIQKTTTRRIVDGKVVSETNDTK [KRT18], the protein stability index by setting is: under setting [1], 5.34 ± 0.19; under setting [2], 5.31 ± 0.23.
Take WMLTRKQFGLLSFFFAVLHAIYSL [STEAP1]: the protein stability index runs as follows: under setting [1], 1.95 ± 0.54; under setting [2], 2.1 ± 0.27.
For the sequence ASMSPDATKPSHWCSVAYWEHRTR [SMAD6], the protein stability index is, setting by setting: under setting [1], 2.84 ± 0.24; under setting [2], 2.87 ± 0.27.
With RLICDFPFDGLLEERALLLGRMGK [VPS39], the protein stability index is 2.28 ± 0.25 under setting [1] and 2.28 ± 0.12 under setting [2].
The corresponding values for PPSMVAAGSVVAAVQGLNLRSPNN [CCND1] are 4.31 ± 0.17 and 4.3 ± 0.26.
As for EVRDRMLLKITIPNAFIGSDVVDW [DVL3], the protein stability index under setting [1] is 2.17 ± 0.43 and the protein stability index under setting [2] stood at 2.46 ± 0.15.
As for AHLGEEAHKCLECGKCFSQNTHLT [ZNF263], the protein stability index reads like this: under setting [1], 3.45 ± 0.34; under setting [2], 3.55 ± 0.48.
As for TKLEAEIVTLRHVLAAKERRCGEL [TPD52L3], the protein stability index reads like this: under setting [1], 2.89 ± 0.22; under setting [2], 2.78 ± 0.35.
Take HLAPSEAKAADSPTRNDLESGLGH: the protein stability index runs as follows: under setting [1], 5.14 ± 0.34; under setting [2], 5.37 ± 0.058.
For EPLYNWQATKASLKERFAFLFNSE [BTBD1], the protein stability index stood at 2.97 ± 0.22 under setting [1] and 2.78 ± 0.37 under setting [2].
With SSTGNTALTYACAGGYVDVVKVLL [ANKRD17], the protein stability index came out at 2.07 ± 0.55 under setting [1] and 2.23 ± 0.3 under setting [2].
As to VVEVTKGILEHVDSASPVEDTSND [M1AP], the protein stability index runs as follows: under setting [1], 5.54 ± 0.23; under setting [2], 5.47 ± 0.31.
For the sequence AVVRLNKKIYEAKRFTDAGFEHYD [CDC14A], the protein stability index reads like this: under setting [1], 2.54 ± 0.38; under setting [2], 2.52 ± 0.25.
With NGEYVPWLYCYDPVMDVWARKQDM [KLHL14], the protein stability index is, setting by setting: under setting [1], 2.49 ± 0.09; under setting [2], 2.57 ± 0.21.
Take ISCVERGWSTPPKCRSTISAEKCG [CFHR2]: the protein stability index by setting is: under setting [1], 2.88 ± 0.14; under setting [2], 3.09 ± 0.32.
In the same order, the values of MSEPAGDVRQNPCGSKACRRLFGP [CDKN1A] are 3.58 ± 0.39 and 3.61 ± 0.14.
For QCFFNGVFLGNKRSLSERTVDKCF [SPATS1], the protein stability index worked out at 2.13 ± 0.25 under setting [1] and 2.34 ± 0.24 under setting [2].

Source of the values: the supplement of paper PMC10567573.
